Patent US12533321B2, “Polypeptide formulations for oral delivery” (Bhami's Research Laboratory, Pvt. Ltd., priority 2022, dated 2026)
Read-outs that look alike come from different tables or passages of the source.

Assays:
[1] = Pharmacokinetics of Semaglutide in albumin crystal sugar truffle shell vs SC, plasma Semaglutide by ELISA; type: in vivo, Wistar Rats; settings: 0.1 mg
Procedure: The semaglutide was processed to prepare albumin microparticles containing semaglutide according to the procedure mentioned under Example 5. The microparticle of albumin crystals containing semaglutide was then lyophilized after washing with cold isopropanol.
Pharmacokinetic analysis was conducted in male Wistar Rats weighing 150 to 250 grams for 1 day. Rats in the oral treatment group was fasted overnight. […] The time of dosage of each animal was noted. […] An antibody, anti-Semaglutide was pre-coated onto a 96-well plate. […] The intensity of the yellow color is proportional to the Semaglutide amount bound on the plate.

[2] = minipig, in vivo, iv
Procedure: Pharmacokinetic analysis was conducted in Female Minipigs weighing 12±1 kg for 2 days. Pigs in the treatment group was fasted overnight prior to the test sample administration. All the test animals in the treatment groups were administered with respective test formulation to the pre-designated animals. The time of dosage of each animal was noted. Blood samples were collected at aforementioned time points 0 min, 5 min, 30 min, 1 hr, 4 hrs, 12 hrs, 24 hrs, and 48 hrs into an EDTA-blood collection tubes for the separation of plasma to determine insulin levels by ELISA. Plasma samples collected at different time points were analyzed by ELISA kit according to ABBEXA protocol. This kit is based on sandwich enzyme-linked immuno-sorbent assay technology. An antibody, anti-insulin was pre-coated onto a 96-well plate. Standards, test samples, and biotin-conjugated reagent were added to the wells and incubated. The HRP-conjugated reagent was then added, and the whole plate was incubated. Unbound conjugates were removed using wash buffer at each stage. TMB substrate was used to quantify the HRP enzymatic reaction. After TMB substrate was added, only wells that contain sufficient INS will produce a blue colored product, which then changes to yellow after adding the acidic stop solution. The intensity of the yellow colour is proportional to the INS amount bound on the plate. The Optical Density (OD) was measured spectrophotometrically at 450 nm in a microplate reader, from which the concentration of INS can be calculated.
(§1) Insulin was analyzed in plasma using a specific enzyme linked immunosorbent assay (ELISA). Pharmacokinetic endpoints were determined using noncompartmental methods using PK Solutions software. AUC was approximated using the trapezoidal rule on the observed concentrations. C max for each Insulin dose was derived as the maximum of all valid concentrations, and t max was then determined as the corresponding time point to C max. The terminal elimination rate constant (λ z) was estimated by log-linear regression on the terminal part of the concentration-time curve, and t ½ was then calculated as t ½=ln 2/λz.

[3] = minipig, in vivo, iv; remark: listed apart in the source
Procedure: Pharmacokinetic analysis was conducted in Female Minipigs weighing 12±1 kg for 2 days. Pigs in the treatment group was fasted overnight prior to the test sample administration. All the test animals in the treatment groups were administered with respective test formulation to the pre-designated animals. The time of dosage of each animal was noted. Blood samples were collected at aforementioned time points 0 min, 5 min, 30 min 1 hr, 4 hrs, 12 hrs, 24 hrs, and 48 hrs into an EDTA-blood collection tubes for the separation of plasma to determine insulin levels by ELISA. Plasma samples collected at different time points were analyzed by ELISA kit according to ABBEXA protocol. This kit is based on sandwich enzyme-linked immuno-sorbent assay technology. An antibody, anti-insulin was pre-coated onto a 96-well plate. Standards, test samples, and biotin-conjugated reagent were added to the wells and incubated. The HRP-conjugated reagent was then added, and the whole plate was incubated. Unbound conjugates were removed using wash buffer at each stage. TMB substrate was used to quantify the HRP enzymatic reaction. After TMB substrate was added, only wells that contain sufficient INS will produce a blue colored product, which then changes to yellow after adding the acidic stop solution. The intensity of the yellow colour is proportional to the INS amount bound on the plate. The Optical Density (OD) was measured spectrophotometrically at 450 nm in a microplate reader, from which the concentration of INS can be calculated.
as §1

CC[C@H](C)[C@H](NC(=O)[C@H](Cc1ccccc1)NC(=O)[C@H](CCC(=O)O)NC(=O)[C@H](CCCCNC(=O)COCCOCCNC(=O)COCCOCCNC(=O)CC[C@H](NC(=O)CCCCCCCCCCCCCCCCC(=O)O)C(=O)O)NC(=O)[C@H](C)NC(=O)[C@H](C)NC(=O)[C@H](CCC(N)=O)NC(=O)CNC(=O)[C@H](CCC(=O)O)NC(=O)[C@H](CC(C)C)NC(=O)[C@H](Cc1ccc(O)cc1)NC(=O)[C@H](CO)NC(=O)[C@H](CO)NC(=O)[C@@H](NC(=O)[C@H](CC(=O)O)NC(=O)[C@H](CO)NC(=O)[C@@H](NC(=O)[C@H](Cc1ccccc1)NC(=O)[C@@H](NC(=O)CNC(=O)[C@H](CCC(=O)O)NC(=O)C(C)(C)NC(=O)[C@@H](N)Cc1cnc[nH]1)[C@@H](C)O)[C@@H](C)O)C(C)C)C(=O)N[C@@H](C)C(=O)N[C@@H](Cc1c[nH]c2ccccc12)C(=O)N[C@@H](CC(C)C)C(=O)N[C@H](C(=O)N[C@@H](CCCNC(=N)N)C(=O)NCC(=O)N[C@@H](CCCNC(=N)N)C(=O)NCC(=O)O)C(C)C [Semaglutide]
Mean Semaglutide levels ([1]; 0 h, SC): 0.00 ± 0.00 ng/mL | AUMC 0-inf_obs ([1]; SC): 29775275.74 ng/ml * h^2 | AUMC 0-inf_pred ([1]; SC): 29434343.61 ng/ml * h^2 | AUMC 0-t ([1]; SC): 2165980.669 ng/ml * h^2 | AUMC 0-t/0-inf_obs ([1]; SC): 0.07274 | AUMC 0-t/0-inf_pred ([1]; SC): 0.07359 | AUMC t-inf_obs ([1]; SC): 27609295.07 ng/ml * h^2 | AUMC t-inf_pred ([1]; SC): 27268362.94 ng/ml * h^2 | Clast_obs ([1]; SC): 6808.65 ng/mL | Clast_pred ([1]; SC): 6725 ng/mL | Lambda_z ([1]; SC): 0.01894 h⁻¹ | Tlag ([1]; SC): 0 h | Tlast ([1]; SC): 24 h | level at 0.25 h ([1]; male, Wistar, rat, plasma, 0.25 h, SC, read-out: Mean Semaglutide levels): 11900 ± 2420 ng/mL | level at 0.5 h ([1]; male, Wistar, rat, plasma, 0.5 h, SC, read-out: Mean Semaglutide levels): 11200 ± 1470 ng/mL | level at 1 h ([1]; male, Wistar, rat, plasma, 1 h, SC, read-out: Mean Semaglutide levels): 13100 ± 1670 ng/mL | level at 2 h ([1]; male, Wistar, rat, plasma, 2 h, SC, read-out: Mean Semaglutide levels): 12600 ± 2930 ng/mL | level at 4 h ([1]; male, Wistar, rat, plasma, 4 h, SC, read-out: Mean Semaglutide levels): 10300 ± 2790 ng/mL | level at 8 h ([1]; male, Wistar, rat, plasma, 8 h, SC, read-out: Mean Semaglutide levels): 8560 ± 1420 ng/mL | level at 24 h ([1]; male, Wistar, rat, plasma, 24 h, SC, read-out: Mean Semaglutide levels): 6810 ± 1730 ng/mL | MRT inf ([1]; rat, in vivo, sc, SC, read-out: MRT 0-inf_obs): 52.6 h | MRT inf ([1]; rat, in vivo, sc, SC, read-out: MRT 0-inf_pred): 52.4 h | MRT last ([1]; rat, in vivo, sc, read-out: MRT 0-t): 10.5 h

Human Insulin R: Humulin R (insulin human recombinant) U-100, marketed liquid formulation, given IV
Cl_obs [2]: 0.000 (mg)/(mU/L)/h | Cl_pred [2]: 0.000 (mg)/(mU/L)/h | AUC 0-inf_obs ([2]; 0.347 mg): 803.478 mU/L * h | AUC 0-inf_pred ([2]; 0.347 mg): 800.145 mU/L * h | AUC t-inf_obs ([2]; 0.347 mg): 20.830 mU/L * h | AUC t-inf_pred ([2]; 0.347 mg): 17.497 mU/L * h | AUC(0-t) ([2]; 0.347 mg): 782.648 mU/L * h | C0 ([2]; 0.347 mg): 105.903 mU/L | Cmax ([2]; 0.347 mg): 998.596 mU/L | MRT 0-inf_obs ([2]; 0.347 mg): 1.532 h | MRT 0-inf_pred ([2]; 0.347 mg): 1.471 h | MRT 0-t ([2]; 0.347 mg): 1.143 h | Tmax ([2]; 0.347 mg): 4.8 min | Vss_obs ([2]; 0.347 mg): 0.001 (mg)/(mU/L) | Vss_pred ([2]; 0.347 mg): 0.001 (mg)/(mU/L) | Vz_obs ([2]; 0.347 mg): 0.002 (mg)/(mU/L) | Vz_pred ([2]; 0.347 mg): 0.002 (mg)/(mU/L) | t½ ([2]; 0.347 mg): 2.873 h | Cl_obs [3]: 0.000 (mg)/(mU/L)/h | Cl_pred [3]: 0.000 (mg)/(mU/L)/h | AUC 0-inf_obs ([3]; 0.347 mg): 803.478 mU/L * h | AUC 0-inf_pred ([3]; 0.347 mg): 800.145 mU/L * h | AUC t-inf_obs ([3]; 0.347 mg): 20.830 mU/L * h | AUC t-inf_pred ([3]; 0.347 mg): 17.497 mU/L * h | AUC(0-t) ([3]; 0.347 mg): 782.648 mU/L * h | C0 ([3]; 0.347 mg): 105.903 mU/L | Cmax ([3]; 0.347 mg): 998.596 mU/L | MRT 0-inf_obs ([3]; 0.347 mg): 1.532 h | MRT 0-inf_pred ([3]; 0.347 mg): 1.471 h | MRT 0-t ([3]; 0.347 mg): 1.143 h | Tmax ([3]; 0.347 mg): 4.8 min | Vss_obs ([3]; 0.347 mg): 0.001 (mg)/(mU/L) | Vss_pred ([3]; 0.347 mg): 0.001 (mg)/(mU/L) | Vz_obs ([3]; 0.347 mg): 0.002 (mg)/(mU/L) | Vz_pred ([3]; 0.347 mg): 0.002 (mg)/(mU/L) | t½ ([3]; 0.347 mg): 2.873 h
